In article doi:10.1101/2024.07.16.603698 (bioRxiv, 2024):

Target: full-length GST-tagged SARS-CoV-2 Nucleocapsid (N) protein (SARS-CoV-2, UniProt P0DTC9 1-419)
Experiment: pull-down

B1: human UPF2 truncated construct lacking 120 and 45 residues at the N- and C-termini (domain or fragment)
chain: MKEKEESIQLHQEAWERHHLRKELRSKNQNAPDSRPEENFFSRLDSSLKKNTAFVKKLKTITEQQRDSLSHDFNGLNLSKYIAEAVASIVEAKLKISDVNCAVHLCSLFHQRYADFAPSLLQVWKKHFEARKEEKTPNITKLRTDLRFIAELTIVGIFTDKEGLSLIYEQLKNIINADRESHTHVSVVISFCRHCGDDIAGLVPRKVKSAAEKFNLSFPPSEIISPEKQQPFQNLLKEYFTSLTKHLKRDHRELQNTERQNRRILHSKGELSEDRHKQYEEFAMSYQKLLANSQSLADLLDENMPDLPQDKPTPEEHGPGIDIFTPGKPGEYDLEGGIWEDEDARNFYENLIDLKAFVPAILFKDNEKSCQNKESNKDDTKEAKESKENKEVSSPDDLELELENLEINDDTLELEGGDEAEDLTKKLLDEQEQEDEEASTGSHLKLIVDAFLQQLPNCVNRDLIDKAAMDFCMNMNTKANRKKLVRALFIVPRQRLDLLPFYARLVATLHPCMSDVAEDLCSMLRGDFRFHVRKKDQINIETKNKTVRFIGELTKFKMFTKNDTLHCLKMLLSDFSHHHIEMACTLLETCGRFLFRSPESHLRTSVLLEQMMRKKQAMHLDARYVTMVENAYYYCNPPPAEKTVKKKRPPLQEYVRKLLYKDLSKVTTEKVLRQMRKLPWQDQEVKDYVICCMINIWNVKYNSIHCVANLLAGLVLYQEDVGIHVVDGVLEDIRLGMEVNQPKFNQRRISSAKFLGELYNYRMVESAVIFRTLYSFTSFGVNPDGSPSSLDPPEHLFRIRLVCTILDTCGQYFDRGSSKRKLDCFLVYFQRYVWWKKSLEVWTKDHPFPIDIDYMISDTLELLRPKIKLCNSLEESIRQVQDLEREFLIKLGLVNDKDSKDSMTEGENLEEDEEEEEGGAETEEQSGNESEVNEPEEEEGSDNDDDEGEEEEEENTDYLTDSNKENETDEENTEVMIKGGGLKHVPCVEDEDFIQALDKMMLENLQQRSGESVKVHQLDVAIPLHLKSQLRKGPPLGGGEGEAESADTMPFVMLTRKGNKQQFKILNVPMSSQLAANHWNQQQAEQEERMRMKKLTLDINERQEQED
B1: binds.
